Experimental data taken from PMC9666535.

Biological target: PCNA N107C labeled with Cy5 (human) (UniProt P12004)
Assay: native gel or EMSA; protein-protein EMSA in solution, no DNA: 1 nM PCNA-Cy5 with increasing Polδ Exo^− or Lig1, 20 min at RT, 6% non-denaturing TBE-PAGE; bound PCNA fitted to a quadratic isotherm

Sequence of PCNA N107C labeled with Cy5 (human) (P12004 whole entry N107C): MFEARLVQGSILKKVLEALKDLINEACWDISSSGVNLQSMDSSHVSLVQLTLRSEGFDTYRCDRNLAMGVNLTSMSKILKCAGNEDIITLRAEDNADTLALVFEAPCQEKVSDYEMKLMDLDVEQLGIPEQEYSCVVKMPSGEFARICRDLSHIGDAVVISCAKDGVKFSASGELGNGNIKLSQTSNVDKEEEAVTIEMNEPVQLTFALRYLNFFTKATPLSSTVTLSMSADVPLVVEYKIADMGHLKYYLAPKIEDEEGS

Work on “Polδ Exo^− (D515V in p125) (from UniProt P28340 1-1107; Q9HCU8 1-107) (complex)” yielded a Kd of 15 nM.
